Source: patent publication US20230051715A1 (MABWELL THERAPEUTICS, published 2023)

T1: human C1s mutant M11 (S349P) (human, UniProt P09871 16-688)
T1 construct: The entry is the mutant itself
T1 sequence: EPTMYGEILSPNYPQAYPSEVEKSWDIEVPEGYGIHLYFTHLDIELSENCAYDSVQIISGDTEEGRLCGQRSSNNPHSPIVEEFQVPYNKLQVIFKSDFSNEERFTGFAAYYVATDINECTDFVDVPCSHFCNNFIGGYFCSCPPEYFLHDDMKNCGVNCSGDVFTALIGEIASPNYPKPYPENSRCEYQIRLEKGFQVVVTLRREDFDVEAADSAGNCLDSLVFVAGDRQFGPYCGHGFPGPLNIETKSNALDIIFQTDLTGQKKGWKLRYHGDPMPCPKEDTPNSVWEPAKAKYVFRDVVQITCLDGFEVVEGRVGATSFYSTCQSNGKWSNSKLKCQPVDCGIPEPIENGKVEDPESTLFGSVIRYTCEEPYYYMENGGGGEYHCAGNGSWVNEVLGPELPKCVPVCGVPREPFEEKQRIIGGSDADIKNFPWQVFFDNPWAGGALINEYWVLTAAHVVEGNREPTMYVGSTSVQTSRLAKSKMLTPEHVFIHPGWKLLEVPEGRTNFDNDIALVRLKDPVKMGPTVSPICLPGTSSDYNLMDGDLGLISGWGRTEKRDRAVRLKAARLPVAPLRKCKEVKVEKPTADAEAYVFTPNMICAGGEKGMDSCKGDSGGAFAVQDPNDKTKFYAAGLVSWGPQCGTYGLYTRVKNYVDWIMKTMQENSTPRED

T2: C1s in normal human serum (NHS, CompTech NHS) (human, UniProt P09871 16-688)
T2 sequence (looked up): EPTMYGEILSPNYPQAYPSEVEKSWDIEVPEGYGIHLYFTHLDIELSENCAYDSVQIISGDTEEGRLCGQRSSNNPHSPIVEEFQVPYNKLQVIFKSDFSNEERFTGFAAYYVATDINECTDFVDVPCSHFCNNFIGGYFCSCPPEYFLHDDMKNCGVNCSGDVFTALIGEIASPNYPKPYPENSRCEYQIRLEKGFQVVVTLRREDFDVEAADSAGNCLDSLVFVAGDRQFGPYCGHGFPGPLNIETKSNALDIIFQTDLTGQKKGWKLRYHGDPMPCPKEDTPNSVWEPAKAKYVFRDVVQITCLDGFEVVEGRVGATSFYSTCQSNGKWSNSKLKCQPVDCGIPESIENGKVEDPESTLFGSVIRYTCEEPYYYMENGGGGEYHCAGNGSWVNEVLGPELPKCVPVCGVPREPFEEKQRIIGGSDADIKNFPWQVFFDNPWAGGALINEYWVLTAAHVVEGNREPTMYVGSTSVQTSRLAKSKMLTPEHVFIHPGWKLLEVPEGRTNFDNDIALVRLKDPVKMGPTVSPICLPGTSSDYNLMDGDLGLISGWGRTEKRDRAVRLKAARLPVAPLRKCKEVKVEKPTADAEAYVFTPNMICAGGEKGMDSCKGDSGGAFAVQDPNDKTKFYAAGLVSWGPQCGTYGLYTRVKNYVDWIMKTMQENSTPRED

T3: C1s in normal cynomolgus monkey serum (CMS, CompTech NCYS) (cynomolgus monkey, UniProt A0A2K5VQX9 16-685)
T3 sequence: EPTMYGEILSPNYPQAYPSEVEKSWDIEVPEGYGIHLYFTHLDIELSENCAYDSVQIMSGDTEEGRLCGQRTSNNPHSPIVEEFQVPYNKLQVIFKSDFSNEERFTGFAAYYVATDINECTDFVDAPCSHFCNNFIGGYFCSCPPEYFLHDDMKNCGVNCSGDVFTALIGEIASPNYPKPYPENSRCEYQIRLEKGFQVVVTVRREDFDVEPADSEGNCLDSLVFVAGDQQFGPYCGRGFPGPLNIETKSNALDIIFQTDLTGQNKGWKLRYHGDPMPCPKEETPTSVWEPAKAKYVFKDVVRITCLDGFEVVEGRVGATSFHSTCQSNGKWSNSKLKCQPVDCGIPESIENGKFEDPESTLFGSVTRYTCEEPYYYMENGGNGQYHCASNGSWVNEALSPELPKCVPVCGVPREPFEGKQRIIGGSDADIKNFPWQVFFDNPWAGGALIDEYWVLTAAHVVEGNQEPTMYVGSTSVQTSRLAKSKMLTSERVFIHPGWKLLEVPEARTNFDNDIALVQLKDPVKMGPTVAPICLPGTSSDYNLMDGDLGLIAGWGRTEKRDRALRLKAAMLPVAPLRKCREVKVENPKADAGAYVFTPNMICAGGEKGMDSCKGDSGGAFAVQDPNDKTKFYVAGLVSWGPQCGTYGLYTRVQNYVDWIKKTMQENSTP


Tests used:
[1] = target: T1, human C1s mutant M11 (S349P); assay: ELISA, plate coated with human C1s mutant M11: S349P, OD450nm
Procedure: ELISA was carried out by first coating 96-well plates with 200 ng/well of full-length or truncated C1s proteins overnight. The next morning, plates were blocked with SuperBlock T20 blocking buffer (Thermo Scientific 37536) for 1 h with gentle shaking. Then, various concentrations of anti-C1s antibodies diluted in SuperBlock T20 blocking buffer were added to the plates and incubated for 1 h with gentle shaking. Mouse IgG (Sigma-Aldrich 15381) and human IgG1 (BioXCell BP0297) were used as negative controls. The plates were washed before incubating with HRP conjugated secondary antibodies diluted in SuperBlock T20 blocking buffer (goat anti-mouse IgG (H+L) cross-adsorbed secondary antibody HRP (Invitrogen G-21040) or goat anti-human IgG antibody, HRP conjugate (Millipore AP309P)) for 1 h with gentle shaking. At last, the plates were washed and color developed with ELISA liquid HRP substrate (Sigma-Aldrich), followed by stopping the reaction with addition of 1M H₂SO₄ in the same volume as the ELISA liquid substrate. Bound antibody was measured by absorbance at OD₄₅₀ₙₘ.
Binding of anti-C1s antibodies to mutants M1-M20 of human C1s was measured by ELISA as described in Example 4, and results are shown in FIGS. 6B-6U. All anti-C1s humanized variants including hz2-7(H1L2), hz2-8(H1L2 G80A) and hz2-8(H1L2 G80A/T82A) maintained strong binding properties to the majority (16 out of 20) of C1s mutants including M1 (FIG. 6B), M2 (FIG. 6C), M3 (FIG. 6D). M4 (FIG. 6E), M7 (FIG. 6H), M8 (FIG. 6I), M10 (FIG. 6K), M11 (FIG. 6L), M12 (FIG. 6M), M13 (FIG. 6N), M15 (FIG. 6P), M16 (FIG. 6Q), M17 (FIG. 6R), M18 (FIG. 6S), M19 (FIG. 6T) and M20 (FIG. 6U).

[2] = target: T2, C1s in normal human serum (NHS, …); assay: cell-based or functional assay
[3] = target: T3, C1s in normal cynomolgus monkey serum …; assay: cell-based or functional assay

EC50 [1] [µg/mL]	IC50, inhibition of IgM-induced C4 deposition from NHS [2] [µg/mL]	IC50, inhibition of IgM-induced C4 deposition from CMS [3] [µg/mL]	IC50, inhibition of IgM-induced C4 deposition from cynomolgus monkey serum [3] [µg/mL]	IC50, inhibition of human complement-mediated lysis of EA [2] [µg/mL]	IC50, inhibition of cynomolgus monkey complement-mediated lysis of EA [3] [µg/mL]	Binder
0.005	0.4	0.4	–	–	–	Anti-C1s antibody hz2-8 (H1L2 G80A/T82A) (antibody, V domains shown, Humanized variant with G80A and T82A in HC CDR2 (already in the entry), human IgG1 / kappa) VH: QVQLVQSGAEVKKPGASVKVSCKASGFNIKEYYMHWVRQAPEQGLEWMGWIDPENADAIYAQKFQGRVTITADTSTNTAYMELSSLRSEDTAVYYCARSRLFFAYWGQGTLVTVSS VL: DIQMTQSPKSLSASVGDRVTITCRASQDVRTALDWYQQKPGQSPKLLIYSASYRYSGVPSRFSGSGSGTDFTLTISSLQPEDFATYYCQQQYTTPYTFGQGTKLEIKR
–	–	–	~0.5	–	–	Anti-C1s antibody 2-8 (antibody, V domains shown, the HC/LC entries may hold it too; also called clone 2-8) VH: EVQLQQSGAELVRPGALVKLSCKASGFNIKEYYMHWVKQRPEQGLEWIGWIDPENGDTIYDPKFQGKASITADTSSNTAYLQLSSLTSEDTAVYYCARSRLFFAYWGQGTLVTVSA VL: DIVMTQSHKFMSTSVGDRVSFTCKASQDVRTAVDWYQQKPGQSPKLLIYSASYRYTGVPDRFTGTGSGTDFTFTISSVQAEDLAVYFCQQQYTTPYTFGGGTKLEIKT

The next lines start with the binder.

Binder	EC50 [1] [µg/mL]	IC50, inhibition of IgM-induced C4 deposition from NHS [2] [µg/mL]	IC50, inhibition of IgM-induced C4 deposition from CMS [3] [µg/mL]	IC50, inhibition of IgM-induced C4 deposition from cynomolgus monkey serum [3] [µg/mL]	IC50, inhibition of human complement-mediated lysis of EA [2] [µg/mL]	IC50, inhibition of cynomolgus monkey complement-mediated lysis of EA [3] [µg/mL]
Anti-C1s antibody hz2-8 (H1L2 G80A) (antibody, V domains shown, Humanized variant with G80A in HC CDR2 (already in the entry), human IgG1 / kappa) VH: QVQLVQSGAEVKKPGASVKVSCKASGFNIKEYYMHWVRQAPEQGLEWMGWIDPENADTIYAQKFQGRVTITADTSTNTAYMELSSLRSEDTAVYYCARSRLFFAYWGQGTLVTVSS VL: DIQMTQSPKSLSASVGDRVTITCRASQDVRTALDWYQQKPGQSPKLLIYSASYRYSGVPSRFSGSGSGTDFTLTISSLQPEDFATYYCQQQYTTPYTFGQGTKLEIKR	0.004	0.5	0.5	–	–	–
Anti-C1s antibody 2-7 (antibody, human IgG1, kappa, V domains shown, the HC/LC entries may hold it too; also called clone 2-7) VH: EVKLEESGGGLVPPGGSMKLSCVASGFTFSNYFMNWVRQSPEKGLEWVAEIRLKFTNYATHYAESVEGRFTISRDDSKSSVYLQMNNLRAEDTGIYYCTRDYGSRNGYFDYWGQGTTLTVSS VL: DIVMTQAAPSVPVTPGESVSISCRSSKSLLHSNGNTFLYWFLQRPGQSPQLLIYRMSNLASGVPDRFSGSGSGTAFTLRVSRVEAEDVGIYYCMQHLEYPYTFGGGTKLEIKT	–	–	–	~0.3	–	–
Anti-C1s antibody hz2-7(H1L2) (antibody, V domains shown, Humanized, human IgG1 / kappa; also called hz2-7(1L2)) VH: EVQLLESGGGLVQPGGSLRLSCAASGFTFSNYFMNWVRQAPGKGLEWVSEIRLKFTNYATHYADSVKGRFTISRDDSKSTLYLQMNSLRAEDTAVYYCTRDYGSRNGYFDYWGQGTLVTVSS VL: DIVMTQTPLSLPVTPGEPASISCRSSKSLLHSNGNTFLYWFLQKPGQSPQLLIYRMSNLASGVPDRFSGSGSGTDFTLKISRVEAEDVGVYYCMQHLEYPYTFGGGTKLEIKR	0.005	1.1	0.9	–	4.1	0.8
